B1: hUGDH (human UDP-glucose dehydrogenase) (Homo sapiens) (protein)
chain: MFEIKKICCIGAGYVGGPTCSVIAHMCPEIRVTVVDVNESRINAWNSPTLPIYEPGLKEVVESCRGKNLFFSTNIDDAIKEADLVFISVNTPTKTYGMGKGRAADLKYIEACARRIVQNSNGYKIVTEKSTVPVRAAESIRRIFDANTKPNLNLQVLSNPEFLAEGTAIKDLKNPDRVLIGGDETPEGQRAVQALCAVYEHWVPREKILTTNTWSSELSKLAANAFLAQRISSINSISALCEATGADVEEVATAIGMDQRIGNKFLKASVGFGGSCFQKDVLNLVYLCEALNLPEVARYWQQVIDMNDYQRRRFASRIIDSLFNTVTDKKIAILGFAFKKDTGDTRESSSIYISKYLMDEGAHLHIYDPKVPREQIVVDLSHPGVSEDDQVSRLVTISKDPYEACDGAHAVVICTEWDMFKELDYERIHKKMLKPAFIFDGRRVLDGLHNELQTIGFQIETIGKKVSSKRIPYAPSGEIPKFSLQDPPNKKPKV
B2: cUGDH (C. elegans UDP-glucose dehydrogenase) (Caenorhabditis elegans) (protein)
chain: MTDQVFGKVSKVVCVGAGYVGGPTCAMIAHKCPHITVTVVDMNTAKIAEWNSDKLPIYEPGLDEIVFAARGRNLFFSSDIPKAIAEADLIFISVNTPTKMYGRGKGMAPDLKYVESVSRTIAQYAGGPKIVVEKSTVPVKAAESIGCILREAQKNNENLKFQVLSNPEFLAEGTAMKDLANPDRVLIGGESSPEGLQAVAELVRIYENWVPRNRIITTNTWSSELSKLVANAFLAQRISSINSISAVCEATGAEISEVAHAVGYDTRIGSKFLQASVGFGGSCFQKDVLSLVYLCESLNLPQVADYWQGVININNWQRRRFADKIIAELFNTVTDKKIAIFGFAFKKNTGDTRESSAIHVIKHLMEEHAKLSVYDPKVQKSQMLNDLASVTSAQDVERLITVESDPYAAARGAHAIVVLTEWDEFVELNYSQIHNDMQHPAAIFDGRLILDQKALREIGFRTFAIGTSPDQAYNLFGTAGY

Substrate: NC(=O)c1ccc[n+]([C@@H]2O[C@H](COP(=O)([O-])OP(=O)(O)OC[C@H]3O[C@@H](n4cnc5c(N)ncnc54)[C@H](O)[C@@H]3O)[C@@H](O)[C@H]2O)c1
Assay: purified protein
Settings: NAD^+ binding (NB) domain; varied: cofactor

Protein	K0.5 [µM]
B1	1094 ± 244
B2	333 ± 18
